We go through one molecule from publication PMC6224603, “Membrane association and remodeling by intraflagellar transport protein IFT172” (Nature Communications, 2018).

The assay concerns the target T1, Chlamydomonas IFT172 (intraflagellar transport protein 172), recombinant full-length, C-terminal His-tag (Chlamydomonas reinhardtii, UniProt Q5DM57 1-1755).
T1 construct: Gene synthesised or sub-cloned into MCS2 of the pFL vector; no removal of the His-tag is described; The detergent-free monomer was used in the liposome sedimentation assays; also called IFT172-His tag; IFT172 monomer; source: HighFive insect cells (baculovirus), purified (His60 Ni Resin, SEC on Superose 6; with 0.1% DDM for the monomer, or with HiTrapQ-Sepharose anion exchange for the …)
The assay is described as follows: co-sedimentation; liposome co-sedimentation: IFT172 with Folch fraction I MLV and rising amounts of IFT57; 20 mM Hepes, 150 mM NaCl, pH 7.5, 15 min on ice, 135,000 xg for 20 min, supernatant and pellet by SDS-PAGE; binding of IFT57 to IFT172 is read from the loss of IFT172 from the liposome pellet. The following applies: both partners purified.

T1 sequence (Q5DM57 whole entry): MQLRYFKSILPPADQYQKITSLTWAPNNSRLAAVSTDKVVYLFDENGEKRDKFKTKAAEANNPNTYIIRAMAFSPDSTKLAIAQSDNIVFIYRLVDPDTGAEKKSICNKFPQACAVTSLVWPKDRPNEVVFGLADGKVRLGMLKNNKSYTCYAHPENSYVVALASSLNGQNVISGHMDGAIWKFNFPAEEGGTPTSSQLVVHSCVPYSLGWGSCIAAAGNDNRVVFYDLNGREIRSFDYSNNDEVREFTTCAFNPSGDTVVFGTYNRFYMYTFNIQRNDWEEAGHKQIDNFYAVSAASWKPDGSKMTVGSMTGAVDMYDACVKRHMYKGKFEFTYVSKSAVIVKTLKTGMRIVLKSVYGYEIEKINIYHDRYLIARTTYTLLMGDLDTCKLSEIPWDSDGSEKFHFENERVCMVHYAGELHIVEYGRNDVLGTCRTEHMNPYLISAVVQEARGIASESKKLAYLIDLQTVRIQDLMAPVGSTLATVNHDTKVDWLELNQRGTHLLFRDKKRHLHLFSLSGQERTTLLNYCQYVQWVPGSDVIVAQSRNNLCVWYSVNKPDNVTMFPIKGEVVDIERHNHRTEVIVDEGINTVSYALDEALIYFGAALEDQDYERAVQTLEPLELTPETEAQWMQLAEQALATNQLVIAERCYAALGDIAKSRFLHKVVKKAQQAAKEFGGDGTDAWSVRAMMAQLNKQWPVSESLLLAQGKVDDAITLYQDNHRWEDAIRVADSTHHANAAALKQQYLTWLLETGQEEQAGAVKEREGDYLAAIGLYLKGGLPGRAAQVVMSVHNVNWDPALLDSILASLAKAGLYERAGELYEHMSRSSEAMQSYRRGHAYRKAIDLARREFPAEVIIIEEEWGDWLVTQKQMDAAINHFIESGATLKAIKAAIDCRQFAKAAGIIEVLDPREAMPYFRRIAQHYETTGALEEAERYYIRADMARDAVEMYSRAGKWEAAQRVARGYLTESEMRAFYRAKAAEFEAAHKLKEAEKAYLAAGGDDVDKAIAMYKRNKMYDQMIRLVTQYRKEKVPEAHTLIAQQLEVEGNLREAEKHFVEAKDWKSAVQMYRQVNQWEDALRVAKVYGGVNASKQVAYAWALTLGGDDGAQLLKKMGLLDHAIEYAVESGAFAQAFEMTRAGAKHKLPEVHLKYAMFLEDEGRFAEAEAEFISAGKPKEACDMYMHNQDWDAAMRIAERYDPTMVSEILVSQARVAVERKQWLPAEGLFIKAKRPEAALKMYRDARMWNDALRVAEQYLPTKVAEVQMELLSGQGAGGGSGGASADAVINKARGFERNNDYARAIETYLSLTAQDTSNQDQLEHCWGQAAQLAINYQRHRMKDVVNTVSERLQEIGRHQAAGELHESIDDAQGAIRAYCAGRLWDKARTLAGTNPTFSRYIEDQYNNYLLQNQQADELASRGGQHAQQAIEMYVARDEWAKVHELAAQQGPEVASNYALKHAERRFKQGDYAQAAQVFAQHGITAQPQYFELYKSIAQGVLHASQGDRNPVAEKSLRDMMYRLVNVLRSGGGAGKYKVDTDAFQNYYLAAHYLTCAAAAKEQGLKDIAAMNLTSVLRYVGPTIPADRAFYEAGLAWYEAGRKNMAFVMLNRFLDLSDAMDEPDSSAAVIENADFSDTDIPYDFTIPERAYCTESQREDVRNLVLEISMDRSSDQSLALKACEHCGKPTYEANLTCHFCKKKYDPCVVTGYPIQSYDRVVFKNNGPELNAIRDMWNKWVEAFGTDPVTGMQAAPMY

B1: Chlamydomonas IFT57 (intraflagellar transport protein 57), full-length (natural protein, UniProt Q2XQY7 1-469, looked up)
chain: MSSKRGGRSSLAKAPEEAVNGEAFAPEASPPPPGDDGDAGGEDGGAPAPPPPPATKGGPVAVGRSLEIQTTPDVCMEMLADKLKLLNYEADFCRKKKPYRKPLSRLYFAVPLANSSEQFFYFTSLATWLLGLAGVELPAPKEFDDPNLTCQNILGAVKKLGFAPPSYHPTKLTVGNGKEVVGVLDGLVDFVLERRHHKYSRPAYGNDGQPEEGVQLDDEAEAAAMEGADELAMPAQNQADDDEEEEGVYVDPGRGDAAGPGTGASAAMDAEKAVLVSKVDPTLWKIELERVAPKLRITIAADSKDWRSHLDEAHQHKEVISKAWPDSKTSLERLRADLNGTLEKLQTREKFLNEQFESLMQQYRAARTTFTDVQETYNRKTEAVADRNQEMHRIGETLEEVKAMMDEKGSNIADATPVARIKTAIKQLNKELHDMEVRIGVVSHTLLQLSLRNKRLLQAQAALSDEEED
notes: IFT57 from Chlamydomonas, full length, cloned into the pEC vector; source: E. coli BL21 (DE3), purified (Ni-NTA, TEV cleavage, HiTrapQ-Sepharose, SEC); not shown: His tag, N-terminal, cleaved
As to B1, the binding result is on record as “binds”.
